Results: patent US20250304666A1 (ALCHEMAB THERAPEUTICS, published 2025)

Biological target: T1, non-reduced CFH
T1 construct: also called CFH (NON-REDUCED)
T1 chain: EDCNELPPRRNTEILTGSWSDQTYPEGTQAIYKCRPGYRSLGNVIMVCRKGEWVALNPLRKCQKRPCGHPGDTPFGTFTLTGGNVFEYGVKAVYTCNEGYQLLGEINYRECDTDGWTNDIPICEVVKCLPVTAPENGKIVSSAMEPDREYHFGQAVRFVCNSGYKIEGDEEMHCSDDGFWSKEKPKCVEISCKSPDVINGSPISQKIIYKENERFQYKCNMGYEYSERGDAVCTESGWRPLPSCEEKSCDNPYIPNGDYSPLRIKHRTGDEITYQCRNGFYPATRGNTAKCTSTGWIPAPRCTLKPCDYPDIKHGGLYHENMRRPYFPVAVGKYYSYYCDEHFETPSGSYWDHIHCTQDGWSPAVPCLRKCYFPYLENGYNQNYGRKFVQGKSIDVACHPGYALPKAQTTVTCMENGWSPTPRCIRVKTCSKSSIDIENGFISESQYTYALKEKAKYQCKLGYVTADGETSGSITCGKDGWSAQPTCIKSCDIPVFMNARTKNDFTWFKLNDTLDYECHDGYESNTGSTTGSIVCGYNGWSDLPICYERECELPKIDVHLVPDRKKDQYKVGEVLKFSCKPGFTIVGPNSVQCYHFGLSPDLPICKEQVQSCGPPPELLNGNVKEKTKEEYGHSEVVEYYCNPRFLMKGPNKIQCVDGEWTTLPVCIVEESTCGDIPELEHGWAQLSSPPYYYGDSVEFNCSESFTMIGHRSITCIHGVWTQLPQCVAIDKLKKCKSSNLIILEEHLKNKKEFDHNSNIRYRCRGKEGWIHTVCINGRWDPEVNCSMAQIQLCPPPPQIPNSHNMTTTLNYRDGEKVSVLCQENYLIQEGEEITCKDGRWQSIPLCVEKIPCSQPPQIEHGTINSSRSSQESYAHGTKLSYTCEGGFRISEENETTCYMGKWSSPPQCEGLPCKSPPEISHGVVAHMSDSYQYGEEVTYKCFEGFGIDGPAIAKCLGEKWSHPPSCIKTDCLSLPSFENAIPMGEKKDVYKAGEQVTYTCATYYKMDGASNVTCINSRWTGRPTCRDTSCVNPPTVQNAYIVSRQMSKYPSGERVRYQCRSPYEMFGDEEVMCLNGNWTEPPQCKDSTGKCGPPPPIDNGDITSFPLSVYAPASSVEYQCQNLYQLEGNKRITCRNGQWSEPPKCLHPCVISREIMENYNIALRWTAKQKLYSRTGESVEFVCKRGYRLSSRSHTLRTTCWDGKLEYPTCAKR
Test: direct ELISA on non-reduced CFH

B1: ATL4717 (antibody, human IgG1, kappa, V domains shown)
VH: QVQLVESGGGMVQPGRSLRLSCAASGFTFSIYGMHWVRQAPGRGLEWVAVMSFDGKTKYYADSVKGRFTISRDNSKNTLYLQMNSLRRVDTAVYYCAKGGATAAVFDSWGQGTLVTVSS
VL: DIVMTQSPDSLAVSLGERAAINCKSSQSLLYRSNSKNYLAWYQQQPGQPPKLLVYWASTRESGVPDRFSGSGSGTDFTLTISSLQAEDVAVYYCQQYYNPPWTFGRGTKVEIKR
notes: Human IgG1; also called ATL0004717; ATL04717
EC50 (read off the curve): ~0.2 nM
